Experimental data from the DeepSol protein solubility set.

Experiment: soluble on expression in E. coli; label from the status in PepcDB or PDB records

MGSDKIHHHHHHMAKPLFDQLLASAQQARAPFHTPGHKLGRAIATHLQQAWGSAIFQSDLPELPELDNLYAASGVLAESQAQAAEVFGADRSWFLVNGSTGGLLAAILTICSPGDRLLLPRNAHRSLLSGCILSGAMPVWITPPEAADFDLVGVPTPEQVATALAQDPQIKAVVLVSPTYEGVCADVAAIAAIAHNHNLPLIIDAAHGAHLGFHPDLPRSPLHEGADLVVQSTHKLLGALTQAAMLHCKGDRIDPERLSQSLALVQSSSPSYLLLASLEAATEQMRTSAQDLLQVTIDLARQAHQRLAELPGLQLPALKIGNREGFPQWDRTRLVINFQSCGWSGFCADEYLHEQWQVTAELPSLSNLVFHLSLGNRIEDIDRLVTACDRLLSQEHQEELPPRLPVWLEPETILSPRQAWFSRHQTVSAEQAIGAIAAECVCPYPPGIPVLLPGERISKSAVDYLRQVQTTGGILSGCADPELTTLRIVQDSDTIHASCLS
soluble on expression in E. coli: not soluble

AMKNWKTSAESILTTGPVVPVIVVKKLEHAVPMAKALVAGGVRVLNVTLRTECAVDAIRAIAKEVPEAIVGAGTVLNPQQLAEVTEAGAQFAISPGLTEPLLKAATEGTIPLIPGISTVSELMLGMDYGLKEFKFFPAEANGGVKALQAIAGPFSQVRFCPTGGISPANYRDYLALKSVLCIGGSWLVPADALEAGDYDRITKLAREAVEGAKL
soluble on expression in E. coli: soluble

MGHQVAIYDSRPFVGGKVGSWIDADGNHIEMGLHVFFFNYANLFALMRKVGAFENLLPKAHTHTFINKGGEVGELDFRFPIGAPFNGLKAFFTTSQLTWLDKLQSALALGTSPLVRGILDYEGAMKIIRALDRISFADWFRSHGGSEGSLKRMWNPIAYALGFIDTENISARCMLTVFQMFAAKTEASKLNLLAGSPAEYLHKPILDYIQARGATLHLQRRVREIEYTETNGQTVVTGLQIADGDAVERVEADVYLAACDVPGIQRLLPEAWRKWSEFDNIYKLDAVPVATVQLRFDGWVTELVDREKRHQLDHATGLDNLLYTADADFSCFTDLALSSPKDYYRKGQGSLLQCVLTPGDPFIAMKNEDIAQHVLKQVHELFPSSRDLNMTWSNVVKLAQSLYREAPGMDPFRPDQKTPIANFFLAGSYTQQDYIDSMEGATISGRRAAKAMLEAQAIAALEHHHHHH
soluble on expression in E. coli: not soluble

MSLVNQLSLFIDVVQQGSFTKAAALHDMDNSALSKQIKKLEAELGVQLLNRSTRTFSLTPAGEEILEQAYQLVGSLDNVKSIADSYQAVPKGRIRITAPLHIGQGYLQPVISQFMTTYPDVEVVLMMDDKRSDIISEHFDVAFRLGRLDDSSLIAKKVADIRGVILASHSLIERFGEPSTPEELVNLPSVIYSNGTLTVDTVRLGESPDSSQFKSYKMKGNYKVNDVRTLLSAVQDGLGYAVVASSNLERSIESMGLTTLLTDYPLCNQGLAIYALYPHRKQTALVREFISAVQKHIGHPPLWEQHIPNFASLYPVKKGQ
soluble on expression in E. coli: not soluble

DQQLVDQLSQLKLNVKMLDNRAGENGVDCAALGADWASCNRVLFTLSNDGQAIDGKDWVIYFHSPRQTLRVDNDQFKIAHLTGDLYKLEPTAKFSGFPAGKAVEIPVVAEYWQLFRNDFLPRWYATSGDAKPKMLANTDTENLDQFVAPFTGDQWKRTKDDKNILMTPASRFVSNADLQTLPAGALRGKIVPTPMQVKVHAQDADLRKGVALDLSTLVKPAADVVSQRFALLGVPVQTNGYPIKTDIQPGKFKGAMAVSGAYELKIGKKEAQVIGFDQAGVFYGLQSILSLVPSDGSGKIATLDASDAPRFPYRGIFLDVARNFHKKDAVLRLLDQMAAYKLNKFHFHLSDDEGWRIEIPGLPELTEVGGQRCHDLSETTCLLPQYGQGPDVYGGFFSRQDYIDIIKYAQARQIEVIPEIDMPAHARAAVVSMEARYKKLHAAGKEQEANEFRLVDQTDTSNTTSVQFFNRQSYLNPCLDSSQRFVDKVIGEIAQMHKEAGQPIKTWHFGGDDAKNIRLGAGYTDKAKPEPGKGIIDQSNEDKPWAKSQVCQTMIKEGKVADMEHLPSYFGQEVSKLVKAHGIDRMQAWQDGLKDAESSKAFATSRVGVNFWDTLYWGGFDSVNDWANKGYEVVVSNPDYVYMDFPYEVNPDERGYYWGTRFSDERKVFSFAPDNMPQNAETSVDRDGNHFNAKSDKPWPGAYGLSAQLWSETQRTDPQMEYMIFPRALSVAERSWHRAGWEQDYRAGREYKGGETHFVDTQALEKDWLRFANILGQRELAKLDKGGVAYRLPVPGARVAGGKLEANIALPGLGIEYSTDGGKQWQRYDAKAKPAVSGEVQVRSVSPDGKRYSRAEKV
soluble on expression in E. coli: soluble

KILDACCGSRMFWFDKQNDQVLFMDNRKHYEKLESGHIVAVNPNIVADFRKMPFDDNSFYHVVFDPPHLLRAGSNSWLAKKYGKLNEQTWKEDIQKGFSECMRVLKPNGTLVFKWNEDQIKLSEILSIIDYEPLYGNKRAKTHWLVFMKESEENESNG
soluble on expression in E. coli: soluble

MNPTDWIDTGAVPPRPLPATVDAALAYLSEALGHPVYAHWTLARVKRRYGSLSDAKAAQPTVLKLLLAHDGAVEYWERGRLRTVPADQAPGPAMVLARLLHTHRRRFRLAASSGNAAAVPAASEAAGLVAAPWLAAYSHAEHTWLARAGRFAQLHAATNTLGVANDAQALALFLRDRTGRSPHTLRAYGAELRRLMRWCGVHEVGPLSDLTRQQLLAYRHTLQHGEPGTENASPQLSEATCTRALAVVASLYGYWYDTGYLQANPAAGLSAGSRARAGFAPTRLIPPALLDACDAWLDASAVDASLPALRRRAIWALYRYAGARLAELVWSDEAALPRLEAEVPGHWTLYVCGKGRKVRAIPLPVPCVAVLRAYRHARGLPPEPPAHEALPVIHGHKGEALQSAGLYREVKAIFAAVADGLQARDPAQALLLRAASPHWLRHAYARTLVVDHQVPLPAAQALLGHASVQTTAAYARTDLTQLRAFVDATFADDAPLEHHHHHH
soluble on expression in E. coli: not soluble

MARLARLGEPFALATVVASSGSSPRKAGAKMLIRGDGSALGTVGGGHVEQDTLAAARASLAEGAPRTLEFVLTEEHGYACGGSMSVFIEPQGRRPLLVMFGAGHVGRAVTALAHGCGFRVIVVDERPEYAVPALLPGADEIVCVPVGAAFARLTLDRESFAVIATPGHVHDFDAVRGCLATEVGFIGLLGSRRKREALMKTLTEEGYEAGRQARVVTPVGLDIGAQTPEEIAVSIVGQLVKLRRQA
soluble on expression in E. coli: not soluble

MSLYSGYGYFYRGKFMKPFESHNKQLKILRRRGMEVPSSAKRDLENENYYNIINGYKDLFLELDVNGNFLVPDKYKQGTHFKEVFSLYKLDRKFRNVLLEYLLVFETHIKSRISYYFSEKYREPHSYLYFKNYSSDTSKTDSIVKMVATFSSVMSNRKNKPLKHYINTHNGVPLWILVNYLTLGNVSKMYSNLDDDLRLEVAKDYKRKLERDYKTRVQITPSDVDSILQQAHMFRNVCAHEERLYDYKIDRAKSRANIFANYNKIYDKEYVPTMNGSYVFDLLISLCLFLNKHDYIKLVKNMDKLISNYSHSFYTITIDDLYTKMNFPDQTKILDMLEGHHHHHH
soluble on expression in E. coli: soluble

MKHICLYFQIHQPFRLKRYRFFDIGNDHYYYDDFRNEEIMRRITQKCYLPANLLLKEIIAEHPEFRVAFSISGTALEQLESYSPEALDTFRDLAETGCVEFLAETYAHSLSSLYDPEEFYNQTMIHSRRMEELFGVKPRVLRNTELIFSDNIATQVAEMGFQGMLTEGAKHILGWKSPNYLYKAGSAPELSLLLRNPRLSDAISAMFTRYDWNEYPLTADKMIRWIEETPEEEQIFNLFMNYEVLGSLHPQESGIFDFFRALPSLAKKSEGVKFATPSELIESSSPVAKFSSIYPISWVGEEKDTGTWLGNVLQQGACDKLEQWGERVRMIDDQRMLQDWLYLQSADHFYYMKTRGGDAGNFSPYETPYDAFNNYMNVLSDFLLRVEARYPSTIENEELKALLTTIRNQDKQIKKLEETIKRQKTKTT
soluble on expression in E. coli: not soluble

MARTNLQFANLELFVDQLTGAMTFTRTSLLTAAQGALVTRFAEIDGRVKKNLDRVLAAFRQHRLGVHHFSSMTGYGHGDLGREVLDRVFAQVMGAEAALVRVQFVSGTHAIATALFGVLRPGDELISLAGPPYDTLEEVIGLRGQGQGSLKDFGIHYRELPLLASGEPDWGAIATCVQPQTRMVLIQRSCGYTWRPSLSLEDIGKMIQLIKSQNPDVVCFVDNCYGEFVETQEPPHVGADLIAGSLIKNPGGTIATAGGYLAGRADLIEQASYRLTAPGIGHEGGATFDQHRLLFQGLFLAPQMVGEALKCAHLLAYVFDELGYPVNPAPLSRRRDVIQAVQLGSPEKLIAFCRILQRYSPVGSYLDPVPAPMPGYADDLVMAGGTFIDGSTSELSADGPLRPPYIVFCQGGTHHTHMALILEALLEAQVFLEHHHHHH
soluble on expression in E. coli: not soluble

MAHHHHHHMVEEVTIGRDFVTVRRVDDDDTAAAVRQYAVRLGGNPTATPEETAERSAALQRKVMDAMEENCEQVKTLSGRNDPNESVDGGGENTEDNLGSQGGVALDSVDEAALRDLVRSTHWSELKLHVSALLTDHLYSGRAHIDADAPHPHPDTIPQDGDSEVVVVLKELISTTIRPQLQADGGDIRFVGLADSVMLVEMLGACRKCRSSKTTLRDMIERTTRHWVPEVQKVEEVER
soluble on expression in E. coli: not soluble

MGSDKIHHHHHHVQDKNFDKLAHKFAKNIYGTPKGEIRAAVLWRDLSSALAPFGDKKLRILDAGGGFGFFSQKLARLGHEVVLCDISQEMLIQAQAHIDASTEPLNIELIHAPIQALSVEQNGVFDLILCHAVVEWLTDAQRTMEGLLTMLKPNGLFSLMFYNKEAMRFHALISGNFDYVAADLKVKKKVRLTPTHPLYIQEVKQWFMDWEMTLISQSGVRVIHDYLKKSQAADFDYQKLLQMELEYSQHEPYISLGRYVHFLGISRGT
soluble on expression in E. coli: not soluble

MGSDKIHHHHHHLELSSHFTPEKIQVGISSCLLGQKVRFDGGHKNSYYCDVTLREHVEFVPVCPEMSIGLGAPRKSIRQVRDGDTLLIQSGDGSLDVTDKLNTFSQQKVAELDFLGGYILCAKSPTCGMERVTEYKIGTNNGSKAGVGVFAKVLMETYPHLPVEEEGRLNDLVLRENFITRLYAYHDWFSMLASGLTKHKLIQFHSRYKYLIMAHSPKWYRALGPILADIQDLSASADAYFDGFMTALKIKATRKNHTSTLQHIQGYFKKHLSAGQKQELSESIDKYRQGLLPLLVPITLINHYLREFPTPYIESQVYLNPHPEELKLRYAY
soluble on expression in E. coli: not soluble

MSSSTSQDFVSRPVIKKVFAKLQKEGDGAVVRRGISRSEQKLLDPFLMLDEFSVSPPAGFPDHPHRGITHQDFKGHKGTIYAGDVQWMTAGRGIIHSEMPEEEVNKEPNYQELSHSDIPKAEQNGVEVKVIAGESMGIQSPVYTRTPTMFLDFTLQPGAQIHQNVPESWNAFAYILESGEGGGVFSSSNSSPIPAHSVVVFGPGNDGVSVWNKSSSKQLRFVLIAGEPIGEPVVQYGPFVMNTQAEIDMTIEDYHYGKNGFEMAKYWRSQ
soluble on expression in E. coli: not soluble

MGSDKIHHHHHHMSIKTSNTDFKTRIRQQIEDPIMRKAVANAQQRIGANRQKMVDELGHWEEWRDRAAQIRDHVLSNLDAYLYQLSEKVTQNGGHVYFARTKEDATRYILQVAQRKNARKVVKSKSMVTEEIGVNHVLQDAGIQVIETDLGEYILQLDQDPPSHVVVPAIHKDRHQIRRVLHERLGYEGPETPEAMTLFIRQKIREDFLSAEIGITGCNFAVAETGSVCLVTNEGNARMCTTLPKTHIAVMGMERIAPTFAEVDVLITMLARSAVGARLTGYNTWLTGPREAGHVDGPEEFHLVIVDNGRSEVLASEFRDVLRCIRCGACMNTCPAYRHIGGHGYGSIYPGPIGAVISPLLGGYKDFKDLPYACSLCTACDNVCPVRIPLSKLILRHRRVMAEKGITAKAEQRAIKMFAYANSHPGLWKVGMMAGAHAASWFINGGKTPLKFGAISDWMEARDLPEADGESFRSWFKKHQAQEKKNG
soluble on expression in E. coli: not soluble

MDKQKVALVLSMGGARGIAHIGVIEELLRHNFEITSIAGSSMGAMVGAMYASGKLEECKEWLYSWDKRKMWELADLTLSRDGLVKGDRFIKELKQIIPVMNIEDLPIPYVAMATDIVCDQEVRFDSGNLYDAIRATISIPMLFRPLRKDGMVLIDGGILNPLP
soluble on expression in E. coli: not soluble
